Experiment [1] addresses 26S proteasome reconstituted with Cy3-labeled base (Rpt1-I191AzF-Cy3) (S. cerevisiae) (UniProt P33299). As to the kind of experiment: FRET or BRET. In general terms: BRET reads energy transfer from a luciferase to a nearby fluorophore.
The target in experiment [2] is reconstituted 26S proteasome (wild-type base, lid, Rpn10 and 20S core) (S. cerevisiae) (UniProt P33299).

In experiment [1], “ubiquitinated titin-I27^V15P-23-K-25 (serine rich), Cy5-labeled (from UniProt P0CG63 1-76)” yielded a τapp of tail insertion, fast phase of 7.15 s.

On to “ubiquitinated titin-I27^V15P-23-K-25, Cy5-labeled (from UniProt P0CG63 1-76)”, for which the τapp of tail insertion, fast phase in experiment [1] came out at 1.73 s. As to “ubiquitinated titin-I27^V15P-43-K-11 (from UniProt P0CG63 1-76)”, the KM of multiple-turnover processing (Michaelis-Menten, anisotropy) in experiment [2] was determined as 2 µM.

Substance “ubiquitinated titin-I27^V15P-23-K-11, Cy5-labeled (from UniProt P0CG63 1-76)” came in with a kapp (1/τapp) of tail insertion, fast phase in experiment [1] of 1.4 s⁻¹. With “ubiquitinated titin-I27^V15P-23-K-35 modified with Cy5 on its unstructured tail (from UniProt P0CG63 1-76)”, in experiment [1], the kapp (1/τapp) of tail insertion, fast phase is 0.62 s⁻¹ and the τapp of tail insertion, fast phase worked out at 1.61 s.

The values above are taken from article PMC6519451.
